This note sets out measurements from paper PMC9365671, “Synergistic autoinhibition and activation mechanisms control kinesin-1 motor activity” (Cell reports, 2022).

Data set [1] has as its target T1, KIF5B-Δhinge (Δ505-610)-mScarlet-StrepII (human, UniProt P33176 1-963, Δ505-610).
T1 construct: KIF5B, human, full length with aa 505-610 deleted (aa 1-504 joined to aa 611-963); also called delta-hinge mutant; delta-hinge KHC mutant; source: Sf9 (baculovirus), purified (Streptactin XT, SEC; the fractions that eluted like the wild type were used); not shown: mScarlet, C-terminal, kept
T1 sequence (looked up): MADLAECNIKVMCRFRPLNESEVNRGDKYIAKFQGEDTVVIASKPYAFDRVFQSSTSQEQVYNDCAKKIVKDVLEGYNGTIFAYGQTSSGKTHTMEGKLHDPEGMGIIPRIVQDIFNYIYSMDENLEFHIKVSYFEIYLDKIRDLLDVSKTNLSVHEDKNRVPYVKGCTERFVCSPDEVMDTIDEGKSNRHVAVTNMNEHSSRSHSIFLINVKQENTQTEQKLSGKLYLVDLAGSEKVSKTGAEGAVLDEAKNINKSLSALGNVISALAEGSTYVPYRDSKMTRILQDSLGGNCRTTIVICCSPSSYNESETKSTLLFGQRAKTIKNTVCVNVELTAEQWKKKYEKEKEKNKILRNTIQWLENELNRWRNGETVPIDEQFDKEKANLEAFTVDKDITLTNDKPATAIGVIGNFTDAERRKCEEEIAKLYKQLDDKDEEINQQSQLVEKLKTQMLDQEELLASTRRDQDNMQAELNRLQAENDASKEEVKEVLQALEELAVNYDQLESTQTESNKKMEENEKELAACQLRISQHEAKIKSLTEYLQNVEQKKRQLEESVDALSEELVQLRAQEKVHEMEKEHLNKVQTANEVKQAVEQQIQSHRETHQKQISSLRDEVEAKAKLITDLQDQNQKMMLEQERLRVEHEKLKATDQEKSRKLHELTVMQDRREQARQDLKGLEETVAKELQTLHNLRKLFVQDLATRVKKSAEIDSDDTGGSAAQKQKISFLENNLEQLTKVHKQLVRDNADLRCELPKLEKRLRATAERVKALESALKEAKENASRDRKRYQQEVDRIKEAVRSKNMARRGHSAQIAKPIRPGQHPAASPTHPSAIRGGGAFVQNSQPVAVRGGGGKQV
Briefly: TIRF microscopy on microtubules; 40 nM KIF5B (wild type, mutants or K420B) on MTs with or without 200 nM recombinant KLC1, KLC1-CC or KLC1-TPR added in trans; ATP; relative fluorescence intensity on MTs. To be noted: both partners purified.

Data set [2] deals with the molecule itself. Briefly: SEC-MALS; purified full-length KIF5 alone; BioSep SEC-s4000 column, GF150 buffer (25 mM HEPES-KOH, 150 mM KCl, 2 mM MgCl2).

B1: 6xHis-2xStrepII-sfGFP-KLC1-CC (aa 1-200) (domain or fragment, human, UniProt Q07866 1-200, looked up)
chain: MYDNMSTMVYIKEDKLEKLTQDEIISKTKQVIQGLEALKNEHNSILQSLLETLKCLKKDDESNLVEEKSNMIRKSLEMLELGLSEAQVMMALSNHLNAVESEKQKLRAQVRRLCQENQWLRDELANTQQKLQKSEQSVAQLEEEKKHLEFMNQLKKYDDDISPSEDKDTDSTKEPLDDLFPNDEDDPGQGIQQQHSSAAA
notes: kinesin light chain 1, human, aa 1-200 (N-terminal coiled-coil part); also called N-terminal domain of the KLC; source: pET28a construct (E. coli BL21-CodonPlus (DE3)-RIPL), purified (Streptactin XT, SEC on Superdex 200)
For B1, the binding result in data set [1] is “binds”.

B2: full-length human KIF5C-mScarlet-StrepII (natural protein, UniProt O60282 1-957, looked up)
chain: MADPAECSIKVMCRFRPLNEAEILRGDKFIPKFKGDETVVIGQGKPYVFDRVLPPNTTQEQVYNACAKQIVKDVLEGYNGTIFAYGQTSSGKTHTMEGKLHDPQLMGIIPRIAHDIFDHIYSMDENLEFHIKVSYFEIYLDKIRDLLDVSKTNLAVHEDKNRVPYVKGCTERFVSSPEEVMDVIDEGKANRHVAVTNMNEHSSRSHSIFLINIKQENVETEKKLSGKLYLVDLAGSEKVSKTGAEGAVLDEAKNINKSLSALGNVISALAEGTKTHVPYRDSKMTRILQDSLGGNCRTTIVICCSPSVFNEAETKSTLMFGQRAKTIKNTVSVNLELTAEEWKKKYEKEKEKNKTLKNVIQHLEMELNRWRNGEAVPEDEQISAKDQKNLEPCDNTPIIDNIAPVVAGISTEEKEKYDEEISSLYRQLDDKDDEINQQSQLAEKLKQQMLDQDELLASTRRDYEKIQEELTRLQIENEAAKDEVKEVLQALEELAVNYDQKSQEVEDKTRANEQLTDELAQKTTTLTTTQRELSQLQELSNHQKKRATEILNLLLKDLGEIGGIIGTNDVKTLADVNGVIEEEFTMARLYISKMKSEVKSLVNRSKQLESAQMDSNRKMNASERELAACQLLISQHEAKIKSLTDYMQNMEQKRRQLEESQDSLSEELAKLRAQEKMHEVSFQDKEKEHLTRLQDAEEMKKALEQQMESHREAHQKQLSRLRDEIEEKQKIIDEIRDLNQKLQLEQEKLSSDYNKLKIEDQEREMKLEKLLLLNDKREQAREDLKGLEETVSRELQTLHNLRKLFVQDLTTRVKKSVELDNDDGGGSAAQKQKISFLENNLEQLTKVHKQLVRDNADLRCELPKLEKRLRATAERVKALESALKEAKENAMRDRKRYQQEVDRIKEAVRAKNMARRAHSAQIAKPIRPGHYPASSPTAVHAIRGGGGSSSNSTHYQK
notes: kinesin heavy chain KIF5C, human, cDNA BC110287, full length; 2x Prescission protease sites lie between KIF5C and mScarlet; also called KHC; source: Sf9 (baculovirus), purified (Streptactin XT, SEC); also co-expressed with KLC1 and co-purified; not shown: mScarlet, C-terminal, kept
Consider B2, for which the stoichiometry N – broadly, a count of units in the complex or per binding partner – in data set [2] is 2.
